Test results reported in patent publication US20190077863A1 (AERPIO PHARMACEUTICALS, published 2019).

Legend:
[1] = target: T1, Cynomolgus VE-PTP (Cyno PTP-β) containing first eight FN3 repeats with C-terminal His10 tag (Cyno Beta ½ … (cynomolgus, UniProt P23467 25-817 (human entry))); experiment: ELISA, coated antigen
T1 construct: Produced in HEK293 cells; it was not cut off; also called Cyno VE-PTP
T1 chain: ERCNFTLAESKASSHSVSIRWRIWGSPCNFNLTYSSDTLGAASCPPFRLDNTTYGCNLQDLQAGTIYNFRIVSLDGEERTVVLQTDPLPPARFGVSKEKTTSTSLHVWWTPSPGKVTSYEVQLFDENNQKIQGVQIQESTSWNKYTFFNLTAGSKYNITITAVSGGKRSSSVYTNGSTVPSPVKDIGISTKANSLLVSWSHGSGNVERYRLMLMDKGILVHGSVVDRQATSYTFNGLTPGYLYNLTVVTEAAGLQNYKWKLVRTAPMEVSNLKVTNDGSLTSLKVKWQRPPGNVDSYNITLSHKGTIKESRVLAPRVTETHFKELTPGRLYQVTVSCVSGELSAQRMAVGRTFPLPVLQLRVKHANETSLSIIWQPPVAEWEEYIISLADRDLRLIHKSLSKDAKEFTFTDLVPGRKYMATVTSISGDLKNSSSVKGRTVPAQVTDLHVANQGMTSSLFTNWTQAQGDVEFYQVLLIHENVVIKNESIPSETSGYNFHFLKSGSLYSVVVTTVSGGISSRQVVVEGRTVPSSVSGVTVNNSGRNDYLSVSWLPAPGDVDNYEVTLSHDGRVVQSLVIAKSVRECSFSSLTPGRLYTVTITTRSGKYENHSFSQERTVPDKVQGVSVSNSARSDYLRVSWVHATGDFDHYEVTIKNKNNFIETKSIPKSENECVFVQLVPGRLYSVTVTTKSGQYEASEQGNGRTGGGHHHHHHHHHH
Procedure: (§1) HPTP-β, cyno PTP-β, and HPTP-η proteins were coated onto ELISA plates in coating buffer (pH 9.4). Each protein was prepared as a 1 μg/mL protein stock in 50 mM carbonate-bicarbonate. The coated proteins were aliquoted at a volume of 100 μL/well into sterile, clear, polystyrene, flat bottom 96-well plates. The plates were incubated overnight at 4° C. After overnight incubation, the plates were washed 3× with 200 μL/well of 1×PBS-T (PBS with 0.05% Tween 20). The immunizing protein was human VE-PTP (HPTP-β). The plates were then blocked with 200 μL/well of 5% blotting grade blocker non-fat dry milk in PBS-T and incubated for 1 hr at room temperature.
(§2) Primary antibody samples were prepared for the humanized variants and the negative control, anti-hCD20-hIgG4S228P, using 1 μg/well in 5% blotting grade blocker non-fat dry milk in PBS. Samples were tested in triplicates. The Fab antibody fragments were treated as the IgG antibodies. The plates were then washed 3× with PBS-T and 100 μL of primary antibody preparation was added in each well. The plates were then incubated for 1 hr at room temperature.
(§3) Then, […] Ultra TMB-ELISA was added in each well, and the plate was allowed to develop for 5 min at room temperature. After 5 min, 50 μL of 2 M sulfuric acid was added to each well to stop the reaction. The plates were then analyzed on a plate reader at an absorbance wavelength of 450 nm.

[2] = target: T2, Human HPTP-η with C-terminal His10 tag (Human HPTP-η ECD) (human, UniProt Q12913 36-975); experiment: ELISA, coated antigen
T2 construct: Produced in HEK293 cells; it was not cut off; also called Human PTPη; human PTP-η
T2 sequence: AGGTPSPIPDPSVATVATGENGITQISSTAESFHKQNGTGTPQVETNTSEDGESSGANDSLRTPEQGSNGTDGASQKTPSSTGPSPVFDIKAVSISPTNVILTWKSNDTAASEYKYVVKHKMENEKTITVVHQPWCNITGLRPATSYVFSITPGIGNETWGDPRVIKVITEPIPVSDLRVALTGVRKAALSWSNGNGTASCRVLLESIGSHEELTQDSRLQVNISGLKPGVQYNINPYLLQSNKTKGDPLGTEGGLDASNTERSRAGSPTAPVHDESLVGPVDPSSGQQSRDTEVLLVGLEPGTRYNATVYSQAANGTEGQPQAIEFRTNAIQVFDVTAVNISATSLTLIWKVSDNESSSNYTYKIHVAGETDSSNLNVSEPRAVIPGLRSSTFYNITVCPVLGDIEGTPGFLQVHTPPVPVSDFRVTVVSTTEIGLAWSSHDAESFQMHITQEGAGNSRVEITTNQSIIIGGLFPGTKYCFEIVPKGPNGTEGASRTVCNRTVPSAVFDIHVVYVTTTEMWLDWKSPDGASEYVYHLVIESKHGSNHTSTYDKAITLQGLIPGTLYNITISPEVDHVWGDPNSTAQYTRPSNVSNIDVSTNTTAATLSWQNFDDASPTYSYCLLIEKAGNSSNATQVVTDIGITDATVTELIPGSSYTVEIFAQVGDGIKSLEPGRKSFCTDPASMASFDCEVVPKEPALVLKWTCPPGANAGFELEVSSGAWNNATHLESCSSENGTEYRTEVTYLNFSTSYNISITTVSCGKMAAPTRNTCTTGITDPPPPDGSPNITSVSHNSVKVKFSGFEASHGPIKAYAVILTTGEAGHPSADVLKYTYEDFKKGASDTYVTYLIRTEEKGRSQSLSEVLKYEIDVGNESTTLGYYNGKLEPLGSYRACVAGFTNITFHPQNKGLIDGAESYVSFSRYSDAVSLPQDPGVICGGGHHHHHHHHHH
Procedure: as §1, §2, §3

VEGFR2 = target: T3, VEGFR2 (human, UniProt P35968 20-1356); experiment: immunoprecipitation western blot, HUVECs
T3 construct: Named only as 'VEGFR2; (R2/T2)' in the immunoprecipitation experiment with HUVECs
T3 sequence (P35968 20-1356 limits assumed): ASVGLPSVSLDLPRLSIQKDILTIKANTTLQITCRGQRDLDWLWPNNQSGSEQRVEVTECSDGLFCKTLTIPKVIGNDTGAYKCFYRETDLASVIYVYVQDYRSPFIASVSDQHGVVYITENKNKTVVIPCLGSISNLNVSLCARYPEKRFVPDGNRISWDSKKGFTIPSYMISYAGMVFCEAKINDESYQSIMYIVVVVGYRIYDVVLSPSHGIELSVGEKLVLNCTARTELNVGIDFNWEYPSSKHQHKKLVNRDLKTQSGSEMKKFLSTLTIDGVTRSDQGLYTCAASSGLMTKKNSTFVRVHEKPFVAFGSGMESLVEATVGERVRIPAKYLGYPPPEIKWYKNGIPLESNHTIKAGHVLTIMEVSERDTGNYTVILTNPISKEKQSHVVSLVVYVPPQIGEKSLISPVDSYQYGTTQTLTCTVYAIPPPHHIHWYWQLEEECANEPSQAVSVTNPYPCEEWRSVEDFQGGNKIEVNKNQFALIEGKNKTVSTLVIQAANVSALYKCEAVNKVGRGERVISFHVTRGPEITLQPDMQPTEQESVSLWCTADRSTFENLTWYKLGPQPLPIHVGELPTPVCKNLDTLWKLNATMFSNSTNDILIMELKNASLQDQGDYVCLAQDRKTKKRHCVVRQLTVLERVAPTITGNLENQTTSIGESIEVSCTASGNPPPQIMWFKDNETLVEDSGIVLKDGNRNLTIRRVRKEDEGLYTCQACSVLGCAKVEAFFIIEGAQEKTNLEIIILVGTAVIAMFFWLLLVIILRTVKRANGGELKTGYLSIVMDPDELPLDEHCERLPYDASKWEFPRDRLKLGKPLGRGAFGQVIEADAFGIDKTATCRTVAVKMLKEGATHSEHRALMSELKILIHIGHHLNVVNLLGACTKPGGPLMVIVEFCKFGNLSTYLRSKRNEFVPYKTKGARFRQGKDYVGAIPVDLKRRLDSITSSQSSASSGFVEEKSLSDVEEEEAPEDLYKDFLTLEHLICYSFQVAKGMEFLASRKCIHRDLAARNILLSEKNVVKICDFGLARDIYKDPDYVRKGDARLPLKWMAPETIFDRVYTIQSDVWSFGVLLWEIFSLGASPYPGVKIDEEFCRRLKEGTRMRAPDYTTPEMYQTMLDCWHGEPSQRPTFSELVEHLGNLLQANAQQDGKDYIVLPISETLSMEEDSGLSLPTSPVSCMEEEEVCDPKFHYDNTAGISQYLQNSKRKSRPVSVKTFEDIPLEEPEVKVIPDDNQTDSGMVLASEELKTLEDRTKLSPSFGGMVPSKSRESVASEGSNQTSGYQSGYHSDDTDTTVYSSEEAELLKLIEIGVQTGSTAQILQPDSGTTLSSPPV

Tie2 = target: T4, Tie2 (human, UniProt Q02763 23-1124); experiment: immunoprecipitation western blot, HUVECs
T4 construct: Named only as 'Tie2 (R2/T2)' in the immunoprecipitation experiment with HUVECs; also called T2
T4 sequence (Q02763 23-1124 limits assumed): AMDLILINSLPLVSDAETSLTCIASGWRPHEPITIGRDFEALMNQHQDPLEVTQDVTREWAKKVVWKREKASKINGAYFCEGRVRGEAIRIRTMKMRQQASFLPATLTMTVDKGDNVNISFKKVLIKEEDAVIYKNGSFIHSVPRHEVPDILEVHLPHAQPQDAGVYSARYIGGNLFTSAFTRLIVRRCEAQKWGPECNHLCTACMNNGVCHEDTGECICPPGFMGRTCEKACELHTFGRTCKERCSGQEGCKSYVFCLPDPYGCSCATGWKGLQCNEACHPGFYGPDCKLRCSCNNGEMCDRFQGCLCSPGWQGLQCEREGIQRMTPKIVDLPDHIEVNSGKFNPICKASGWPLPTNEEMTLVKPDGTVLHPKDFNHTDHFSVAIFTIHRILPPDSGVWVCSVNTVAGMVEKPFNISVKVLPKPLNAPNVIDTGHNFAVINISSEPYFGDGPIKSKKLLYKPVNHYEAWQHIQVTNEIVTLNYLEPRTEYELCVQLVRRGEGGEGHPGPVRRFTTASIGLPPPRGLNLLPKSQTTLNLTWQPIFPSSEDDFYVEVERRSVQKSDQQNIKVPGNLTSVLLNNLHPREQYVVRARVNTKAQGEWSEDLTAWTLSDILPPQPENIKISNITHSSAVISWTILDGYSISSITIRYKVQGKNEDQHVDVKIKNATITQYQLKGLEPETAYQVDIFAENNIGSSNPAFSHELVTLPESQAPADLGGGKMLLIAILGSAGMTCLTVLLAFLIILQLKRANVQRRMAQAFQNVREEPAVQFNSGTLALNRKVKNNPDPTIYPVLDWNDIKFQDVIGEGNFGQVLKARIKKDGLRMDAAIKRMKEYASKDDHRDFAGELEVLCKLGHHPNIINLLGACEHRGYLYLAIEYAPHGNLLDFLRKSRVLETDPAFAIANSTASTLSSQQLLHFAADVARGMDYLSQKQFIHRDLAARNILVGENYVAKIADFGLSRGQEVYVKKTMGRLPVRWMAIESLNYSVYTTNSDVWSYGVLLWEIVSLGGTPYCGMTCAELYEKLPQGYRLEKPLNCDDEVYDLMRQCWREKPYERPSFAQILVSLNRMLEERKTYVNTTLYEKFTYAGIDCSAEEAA

[3] = target: T5, Human VE-PTP (HPTP-β) containing first eight FN3 repeats with C-terminal His6 tag (Human ½ VE-PTP ECD) (human, UniProt P23467 23-820); experiment: ELISA, antigen coated at 1 µg/mL, antibody 1 µg/well
T5 construct: Produced in HEK293 cells and purified by the His tag; it was not cut off; also called Human Beta ½ ECD
T5 sequence: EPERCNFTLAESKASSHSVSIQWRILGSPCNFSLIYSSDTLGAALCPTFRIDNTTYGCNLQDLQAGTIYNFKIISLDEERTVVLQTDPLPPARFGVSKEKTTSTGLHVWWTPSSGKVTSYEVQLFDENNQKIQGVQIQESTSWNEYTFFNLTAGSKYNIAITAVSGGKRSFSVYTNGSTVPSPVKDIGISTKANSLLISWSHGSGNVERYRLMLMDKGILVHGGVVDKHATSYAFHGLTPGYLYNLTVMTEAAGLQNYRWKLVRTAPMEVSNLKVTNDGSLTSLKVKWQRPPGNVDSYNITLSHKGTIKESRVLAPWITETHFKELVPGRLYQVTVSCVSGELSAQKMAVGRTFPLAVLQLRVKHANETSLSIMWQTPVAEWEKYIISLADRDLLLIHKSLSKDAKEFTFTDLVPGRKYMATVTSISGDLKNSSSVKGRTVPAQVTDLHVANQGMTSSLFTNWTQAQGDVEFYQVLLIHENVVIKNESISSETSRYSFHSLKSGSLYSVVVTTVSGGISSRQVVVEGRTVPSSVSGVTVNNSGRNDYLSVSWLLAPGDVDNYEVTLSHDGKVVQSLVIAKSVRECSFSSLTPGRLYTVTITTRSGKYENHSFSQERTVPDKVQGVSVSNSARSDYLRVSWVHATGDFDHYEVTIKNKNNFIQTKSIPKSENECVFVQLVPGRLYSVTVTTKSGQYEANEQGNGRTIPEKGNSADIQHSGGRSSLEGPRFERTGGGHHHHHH
Procedure: as §1, §2, §3

B1: murine monoclonal antibody R15E6 (antibody, V domains shown)
VH: EVQLVETGGGLVQPKGSMKLSCAASGFTFNANAMNWIRQAPGKGLEWVARIRTKSNNYATYYAGSVKDRFTISRDDAQNMLYLQMNDLKTEDTAMYYCVRDYYGSSAWITYWGQGTLVTVSA
VL: DIVMTQSHKFMSTSVGDRVSITCKASQHVGTAVAWYQQKPDQSPKQLIYWASTRHTGVPDRFTGSGSGTDFTLTISNVQSEDLADYFCQQYSSYPFTFGSGTKLEIK
notes: Murine monoclonal antibody of hybridoma ATCC PTA-7580, 150 kDa; also called Parental; parental antibody
Q: Does B1 bind [1]?
A: Result: no binding (tested: <=0.2; 1 µg/well)

Q: Does B1 bind [2]?
A: Result: no binding (tested: <=0.2; 1 µg/well)

Q: Does B1 bind (VEGFR2)?
A: Result: no binding

Q: Does B1 bind (Tie2)?
A: Result: no binding

Q: What about the “ELISA value (absorbance at 450 nm)” value [3] of the same binder?
A: Its value is 2.43.
